The target of test [1] is T1, Tra1 (S. cerevisiae, UniProt P38811 1-3744).
T1 construct: Tra1, S. cerevisiae, largest SAGA subunit (SPT module), 3744 residues as printed; Endogenous subunit; Purification methods and any tag are in the Supplementary Materials; also called Tra1_(SAGA); lobe A; source: endogenous, in the native SAGA complex purified from fermented S. cerevisiae cells
Nature of the test: cross-linking; chemical cross-linking of proteins coupled with mass spectrometry (CXMS) on the purified native SAGA complex; 139 unique inter- and 184 unique intra-subunit cross-linking pairs. Conditions: both partners purified.

Test [2] concerns the target T2, Spt7 (S. cerevisiae, UniProt P35177 1-1332).
T2 construct: Spt7, S. cerevisiae, second largest SAGA subunit (SPT module); source: endogenous, in the native SAGA complex purified from fermented S. cerevisiae cells
T2 sequence (looked up): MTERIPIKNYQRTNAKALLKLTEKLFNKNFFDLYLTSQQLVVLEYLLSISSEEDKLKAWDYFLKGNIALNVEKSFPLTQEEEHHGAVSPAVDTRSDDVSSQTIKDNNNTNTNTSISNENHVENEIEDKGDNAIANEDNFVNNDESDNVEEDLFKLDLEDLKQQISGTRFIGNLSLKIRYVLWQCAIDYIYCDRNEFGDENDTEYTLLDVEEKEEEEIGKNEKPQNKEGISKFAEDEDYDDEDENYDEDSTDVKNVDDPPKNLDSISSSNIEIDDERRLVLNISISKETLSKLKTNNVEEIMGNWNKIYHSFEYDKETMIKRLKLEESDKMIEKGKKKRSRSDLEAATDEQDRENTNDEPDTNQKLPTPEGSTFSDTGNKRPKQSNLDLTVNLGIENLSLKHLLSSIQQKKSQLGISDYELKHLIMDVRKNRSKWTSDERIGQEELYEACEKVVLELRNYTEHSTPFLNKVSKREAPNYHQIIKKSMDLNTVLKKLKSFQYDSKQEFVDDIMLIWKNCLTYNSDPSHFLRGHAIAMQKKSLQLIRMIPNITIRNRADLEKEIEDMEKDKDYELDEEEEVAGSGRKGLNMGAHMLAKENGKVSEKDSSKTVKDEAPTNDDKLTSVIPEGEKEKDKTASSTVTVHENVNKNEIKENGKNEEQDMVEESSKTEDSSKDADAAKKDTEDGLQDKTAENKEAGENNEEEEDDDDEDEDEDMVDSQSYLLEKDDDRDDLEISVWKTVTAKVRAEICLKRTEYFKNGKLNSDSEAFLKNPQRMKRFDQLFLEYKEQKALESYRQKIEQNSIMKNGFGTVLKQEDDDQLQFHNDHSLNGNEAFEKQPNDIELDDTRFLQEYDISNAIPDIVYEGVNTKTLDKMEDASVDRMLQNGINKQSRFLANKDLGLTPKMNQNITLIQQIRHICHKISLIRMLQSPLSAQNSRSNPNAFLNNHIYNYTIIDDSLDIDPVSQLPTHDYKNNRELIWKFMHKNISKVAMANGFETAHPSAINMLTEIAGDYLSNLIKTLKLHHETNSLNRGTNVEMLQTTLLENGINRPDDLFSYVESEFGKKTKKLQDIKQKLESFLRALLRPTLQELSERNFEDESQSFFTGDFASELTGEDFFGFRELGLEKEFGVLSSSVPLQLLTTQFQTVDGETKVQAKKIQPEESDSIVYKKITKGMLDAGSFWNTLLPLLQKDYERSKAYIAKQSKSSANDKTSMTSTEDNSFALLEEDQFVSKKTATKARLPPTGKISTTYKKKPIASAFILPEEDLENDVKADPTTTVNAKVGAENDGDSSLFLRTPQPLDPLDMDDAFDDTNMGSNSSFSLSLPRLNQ
The test is described as above. The note with it: both partners purified.

T1 sequence (P38811 whole entry): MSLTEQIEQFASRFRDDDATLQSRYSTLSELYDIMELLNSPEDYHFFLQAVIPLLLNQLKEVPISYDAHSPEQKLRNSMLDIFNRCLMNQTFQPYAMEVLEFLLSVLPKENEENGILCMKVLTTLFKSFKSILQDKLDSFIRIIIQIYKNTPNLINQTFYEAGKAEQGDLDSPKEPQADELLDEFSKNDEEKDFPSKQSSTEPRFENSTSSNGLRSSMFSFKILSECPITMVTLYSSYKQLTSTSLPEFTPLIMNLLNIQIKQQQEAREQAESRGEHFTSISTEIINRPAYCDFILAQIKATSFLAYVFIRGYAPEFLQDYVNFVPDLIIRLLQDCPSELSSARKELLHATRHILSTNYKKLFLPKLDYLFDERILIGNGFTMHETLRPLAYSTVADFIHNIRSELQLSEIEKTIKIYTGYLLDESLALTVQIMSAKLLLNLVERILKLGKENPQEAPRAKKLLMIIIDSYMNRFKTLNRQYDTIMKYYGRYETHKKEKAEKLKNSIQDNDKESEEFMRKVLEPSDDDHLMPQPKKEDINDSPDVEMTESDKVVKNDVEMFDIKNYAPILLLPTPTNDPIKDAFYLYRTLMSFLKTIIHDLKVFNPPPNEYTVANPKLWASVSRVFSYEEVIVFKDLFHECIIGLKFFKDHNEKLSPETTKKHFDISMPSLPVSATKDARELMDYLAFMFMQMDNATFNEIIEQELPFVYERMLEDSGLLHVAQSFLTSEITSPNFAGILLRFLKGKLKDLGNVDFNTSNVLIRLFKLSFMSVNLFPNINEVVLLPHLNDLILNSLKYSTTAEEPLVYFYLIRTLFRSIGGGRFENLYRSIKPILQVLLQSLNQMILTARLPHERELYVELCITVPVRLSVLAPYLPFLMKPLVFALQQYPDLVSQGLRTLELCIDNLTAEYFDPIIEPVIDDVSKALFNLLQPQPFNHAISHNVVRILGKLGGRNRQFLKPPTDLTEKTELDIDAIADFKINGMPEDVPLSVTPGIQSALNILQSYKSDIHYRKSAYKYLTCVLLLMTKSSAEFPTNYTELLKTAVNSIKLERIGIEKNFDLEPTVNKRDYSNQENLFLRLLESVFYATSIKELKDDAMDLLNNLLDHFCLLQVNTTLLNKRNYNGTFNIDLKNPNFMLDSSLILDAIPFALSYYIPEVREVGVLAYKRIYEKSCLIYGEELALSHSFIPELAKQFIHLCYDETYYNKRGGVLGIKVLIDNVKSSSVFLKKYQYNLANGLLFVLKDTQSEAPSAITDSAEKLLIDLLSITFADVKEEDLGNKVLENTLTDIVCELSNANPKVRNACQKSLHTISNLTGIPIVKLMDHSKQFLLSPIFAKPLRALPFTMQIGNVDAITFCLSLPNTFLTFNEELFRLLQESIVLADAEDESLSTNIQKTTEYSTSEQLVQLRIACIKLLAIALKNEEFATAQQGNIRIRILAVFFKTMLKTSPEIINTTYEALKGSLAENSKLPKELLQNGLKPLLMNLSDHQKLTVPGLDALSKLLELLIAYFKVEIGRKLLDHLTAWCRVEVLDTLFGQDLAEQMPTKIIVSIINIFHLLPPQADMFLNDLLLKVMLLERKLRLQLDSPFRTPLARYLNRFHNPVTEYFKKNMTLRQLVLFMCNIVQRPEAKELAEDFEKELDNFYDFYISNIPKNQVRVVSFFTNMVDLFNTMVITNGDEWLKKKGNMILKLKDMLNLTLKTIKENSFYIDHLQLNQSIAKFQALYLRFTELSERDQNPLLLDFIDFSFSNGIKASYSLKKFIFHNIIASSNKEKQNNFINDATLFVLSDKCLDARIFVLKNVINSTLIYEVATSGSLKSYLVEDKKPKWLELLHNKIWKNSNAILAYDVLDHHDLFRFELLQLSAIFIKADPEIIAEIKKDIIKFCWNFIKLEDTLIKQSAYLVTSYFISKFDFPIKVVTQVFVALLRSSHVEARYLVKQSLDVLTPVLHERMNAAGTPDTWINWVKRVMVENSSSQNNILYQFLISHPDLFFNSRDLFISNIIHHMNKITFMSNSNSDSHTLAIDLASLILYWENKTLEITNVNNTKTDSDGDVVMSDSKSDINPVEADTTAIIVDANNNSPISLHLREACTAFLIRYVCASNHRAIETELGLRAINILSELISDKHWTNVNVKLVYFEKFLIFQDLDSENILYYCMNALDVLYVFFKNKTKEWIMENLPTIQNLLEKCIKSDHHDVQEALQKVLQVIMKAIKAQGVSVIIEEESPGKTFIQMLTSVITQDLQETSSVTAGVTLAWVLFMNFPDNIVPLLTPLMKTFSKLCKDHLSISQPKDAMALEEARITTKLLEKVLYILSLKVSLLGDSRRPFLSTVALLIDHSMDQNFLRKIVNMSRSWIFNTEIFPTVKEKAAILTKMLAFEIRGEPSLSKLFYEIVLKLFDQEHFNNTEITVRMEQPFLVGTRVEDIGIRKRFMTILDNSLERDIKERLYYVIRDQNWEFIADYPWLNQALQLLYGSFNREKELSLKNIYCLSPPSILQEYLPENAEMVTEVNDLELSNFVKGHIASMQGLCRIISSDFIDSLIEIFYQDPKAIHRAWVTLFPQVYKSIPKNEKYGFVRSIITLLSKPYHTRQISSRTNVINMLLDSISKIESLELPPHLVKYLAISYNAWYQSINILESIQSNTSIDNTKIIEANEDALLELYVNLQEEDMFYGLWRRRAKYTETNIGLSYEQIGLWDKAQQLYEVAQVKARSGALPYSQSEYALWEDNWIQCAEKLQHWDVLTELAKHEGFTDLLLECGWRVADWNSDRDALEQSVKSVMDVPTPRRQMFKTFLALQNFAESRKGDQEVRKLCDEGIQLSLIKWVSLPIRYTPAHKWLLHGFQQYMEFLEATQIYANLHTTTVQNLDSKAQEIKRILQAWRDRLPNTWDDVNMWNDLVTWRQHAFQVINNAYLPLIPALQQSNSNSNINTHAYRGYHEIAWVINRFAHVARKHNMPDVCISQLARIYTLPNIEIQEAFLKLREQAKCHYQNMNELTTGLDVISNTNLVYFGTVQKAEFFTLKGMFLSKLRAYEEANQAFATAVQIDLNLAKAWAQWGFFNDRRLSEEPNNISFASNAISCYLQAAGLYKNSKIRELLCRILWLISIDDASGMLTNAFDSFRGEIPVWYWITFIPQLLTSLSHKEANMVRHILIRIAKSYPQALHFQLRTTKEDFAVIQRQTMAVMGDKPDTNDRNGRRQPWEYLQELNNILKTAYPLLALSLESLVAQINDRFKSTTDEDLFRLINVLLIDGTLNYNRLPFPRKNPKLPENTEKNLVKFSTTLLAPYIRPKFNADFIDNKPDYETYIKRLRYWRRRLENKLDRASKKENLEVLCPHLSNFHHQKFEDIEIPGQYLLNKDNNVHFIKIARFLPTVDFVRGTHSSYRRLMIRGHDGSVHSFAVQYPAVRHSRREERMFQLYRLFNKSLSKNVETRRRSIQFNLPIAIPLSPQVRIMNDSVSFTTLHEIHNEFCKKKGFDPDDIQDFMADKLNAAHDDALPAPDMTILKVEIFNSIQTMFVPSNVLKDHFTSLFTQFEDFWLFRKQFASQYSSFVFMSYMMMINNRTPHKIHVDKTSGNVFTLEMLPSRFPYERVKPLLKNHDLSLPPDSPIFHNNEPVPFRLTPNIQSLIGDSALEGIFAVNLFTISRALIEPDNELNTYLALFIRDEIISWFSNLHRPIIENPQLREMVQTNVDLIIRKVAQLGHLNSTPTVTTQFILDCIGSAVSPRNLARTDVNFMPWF

B1: Spt3 (natural protein, S. cerevisiae, UniProt P06844 1-337, looked up)
chain: MMDKHKYRVEIQQMMFVSGEINDPPVETTSLIEDIVRGQVIEILLQSNKTAHLRGSRSILPEDVIFLIRHDKAKVNRLRTYLSWKDLRKNAKDQDASAGVASGTGNPGAGGEDDLKKAGGGEKDEKDGGNMMKVKKSQIKLPWELQFMFNEHPLENNDDNDDMDEDEREANIVTLKRLKMADDRTRNMTKEEYVHWSDCRQASFTFRKNKRFKDWSGISQLTEGKPHDDVIDILGFLTFEIVCSLTETALKIKQREQVLQTQKDKSQQSSQDNTNFEFASSTLHRKKRLFDGPENVINPLKPRHIEEAWRVLQTIDMRHRALTNFKGGRLSSKPIIM
notes: Spt3, S. cerevisiae, SAGA subunit (SPT module); source: endogenous, in the native SAGA complex purified from fermented S. cerevisiae cells
B1: the binding result in test [1] and in test [2] was “binds” in each case.

B2: Taf12 (natural protein, S. cerevisiae, UniProt Q03761 1-539, looked up)
chain: MSSNPENSGVNANNNTGTGNADAITGAQQNMVLQPRQLQEMAAKFRTLLTEARNVGETTPRGKELMFQAAKIKQVYDALTLNRRRQQAAQAYNNTSNSNSSNPASIPTENVPNSSQQQQQQQQQTRNNSNKFSNMIKQVLTPEENQEYEKLWQNFQVRHTSIKEKETYLKQNIDRLEQEINKQTDEGPKQQLQEKKIELLNDWKVLKIEYTKLFNNYQNSKKTFYVECARHNPALHKFLQESTQQQRVQQQRVQQQQQQQQQQQQQQQQQQQQQQQRQGQNQRKISSSNSTEIPSVTGPDALKSQQQQQNTITATNNPRGNVNTSQTEQSKAKVTNVNATASMLNNISSSKSAIFKQTEPAIPISENISTKTPAPVAYRSNRPTITGGSAMNASALNTPATTKLPPYEMDTQRVMSKRKLRELVKTVGIDEGDGETVIDGDVEELLLDLADDFVTNVTAFSCRLAKHRKSDNLEARDIQLHLERNWNIRIPGYSADEIRSTRKWNPSQNYNQKLQSITSDKVAAAKNNGNNVASLNTKK
notes: Taf12, S. cerevisiae, SAGA subunit (TAF module); source: endogenous, in the native SAGA complex purified from fermented S. cerevisiae cells
For the molecule B2, the binding result in test [1] and in test [2] was “binds” in each case.
